Our source for the Kd values is publication PMC6200986.

This data set deals with YlxR (Bacillus subtilis 168). Description: EMSA. The conditions noted are these: 10 mM Tris-HCl pH 8.0, 100 mM KCl, 10 mM MgCl2, 1 mM DTT, 10% glycerol, 12 ul; 1% agarose gel in Tris-acetate-EDTA, loaded immediately after protein addition …. Background: A gel shift assay detects complexes by their altered migration in electrophoresis.

Usually Kd stands for the concentration at which binding is half-saturated. Low readings indicate a tighter complex, high ones a looser complex. On to pET28b(+) supercoiled, for which the Kd worked out at 100 nM.
